The Human Domainome abundance scans (Beltran et al. 2025)
± gives the uncertainty stated by the source.

B1: POU domain, class 4, transcription factor 2, residues 256 to 327; numbered along this chain, Q12837 (parent)
chain: RDLEAFAERFKQRRIKLGVTQADVGSALANLKIPGVGSLSQSTICRFESLTLSHNNMIALKPILQAWLEEAE

Variants of: B1
Assay: abundance fitness (aPCA) (normalised: wild type 0, dead -1); higher = more abundant; growth selection in yeast, the domain comes from the species named
Conditions: Homo sapiens
Variant A7V has an abundance fitness of 0.08 ± 0.063. A7S showed an abundance fitness of -0.455 ± 0.066. In the case of E72Y, the abundance fitness is reported as -0.206 ± 0.48. With I44A the abundance fitness was -1 ± 0.17. In the case of I44M, the abundance fitness is reported as -0.87 ± 0.18. For I44V, the abundance fitness was -0.168 ± 0.075. With I44Y the abundance fitness was -0.019 ± 0.39. With P62K the abundance fitness was -0.698 ± 0.13. With P62N the abundance fitness was -0.44 ± 0.26. P62S gave an abundance fitness of -0.465 ± 0.065. P62Y showed an abundance fitness of -0.827 ± 0.2. For P62E, the abundance fitness was -0.457 ± 0.093. In the case of P62R, the abundance fitness is reported as -0.771 ± 0.12. With L17A the abundance fitness was -0.394 ± 0.12. Variant L17N has an abundance fitness of -0.458 ± 0.27. In the case of L17V, the abundance fitness is reported as -0.592 ± 0.11. P34Q showed an abundance fitness of -0.263 ± 0.1. Variant P34S has an abundance fitness of -0.106 ± 0.054. P34R showed an abundance fitness of -0.231 ± 0.05. L31K gave an abundance fitness of 0.002 ± 0.22. With L31T the abundance fitness was -0.149 ± 0.1. In the case of L31C, the abundance fitness is reported as -0.102 ± 0.31. Work on L31Y yielded an abundance fitness of 0.041 ± 0.23. For F47A, the abundance fitness was -0.278 ± 0.17. Work on F47G yielded an abundance fitness of -0.834 ± 0.16. F47V gave an abundance fitness of -1.06 ± 0.3. In the case of R1A, the abundance fitness is reported as 0.078 ± 0.093. In the case of S53M, the abundance fitness is reported as -0.371 ± 0.23. Variant S53V has an abundance fitness of -0.492 ± 0.11. L64W gave an abundance fitness of -1.11 ± 0.39. Work on L64S yielded an abundance fitness of -0.669 ± 0.089. In the case of L64I, the abundance fitness is reported as -0.394 ± 0.097. Variant L64Y has an abundance fitness of -0.416 ± 0.33. Variant L64V has an abundance fitness of -0.295 ± 0.1. With L64D the abundance fitness was -0.6 ± 0.2. In the case of L64R, the abundance fitness is reported as -1.08 ± 0.22. With I15R the abundance fitness was -0.298 ± 0.055. With I15M the abundance fitness was 0.113 ± 0.14. With E69I the abundance fitness was -0.248 ± 0.17. E69N gave an abundance fitness of -0.219 ± 0.14. Work on E69F yielded an abundance fitness of -0.251 ± 0.092. In the case of E69Q, the abundance fitness is reported as -0.001 ± 0.17. With E69R the abundance fitness was -0.211 ± 0.07. For Q41R, the abundance fitness was -0.061 ± 0.06. Work on Q41W yielded an abundance fitness of -0.06 ± 0.068. Variant Q41L has an abundance fitness of -0.289 ± 0.062. Q12M gave an abundance fitness of -0.194 ± 0.1. Q12W gave an abundance fitness of -0.269 ± 0.094. For Q12P, the abundance fitness was -1.22 ± 0.32. With Q12E the abundance fitness was -0.016 ± 0.1. Variant Q12H has an abundance fitness of 0.011 ± 0.16. In the case of S49D, the abundance fitness is reported as -0.106 ± 0.17. Variant S49W has an abundance fitness of -0.485 ± 0.22. Work on S49F yielded an abundance fitness of -0.651 ± 0.24. S49I gave an abundance fitness of -1.03 ± 0.46. In the case of S49R, the abundance fitness is reported as 0.032 ± 0.07. K61Q showed an abundance fitness of -0.047 ± 0.097. For K61I, the abundance fitness was -0.328 ± 0.099. Work on K16S yielded an abundance fitness of -0.018 ± 0.052. In the case of K16M, the abundance fitness is reported as 0.11 ± 0.12. With I63Q the abundance fitness was -0.489 ± 0.14. Work on I63D yielded an abundance fitness of -0.438 ± 0.12. In the case of I63K, the abundance fitness is reported as -0.495 ± 0.18. I63W showed an abundance fitness of -0.443 ± 0.25. I63R showed an abundance fitness of -0.314 ± 0.047. Work on I63S yielded an abundance fitness of -0.224 ± 0.033. I63E showed an abundance fitness of -0.018 ± 0.15. Variant R14M has an abundance fitness of -0.725 ± 0.14. Work on R14H yielded an abundance fitness of -0.859 ± 0.21. Variant L52A has an abundance fitness of -0.822 ± 0.14. L52N showed an abundance fitness of -0.997 ± 0.18. In the case of L52M, the abundance fitness is reported as -0.324 ± 0.19. L52T gave an abundance fitness of -0.683 ± 0.15. In the case of L52P, the abundance fitness is reported as -0.887 ± 0.12. Variant L52S has an abundance fitness of -0.849 ± 0.13. Variant L52G has an abundance fitness of -0.679 ± 0.12. With L52R the abundance fitness was -0.883 ± 0.12. With V24G the abundance fitness was -1.03 ± 0.19. Variant V24N has an abundance fitness of -0.821 ± 0.25. V24F showed an abundance fitness of -0.642 ± 0.18. For V24C, the abundance fitness was -0.1 ± 0.11. V24K gave an abundance fitness of -0.844 ± 0.21. V24I showed an abundance fitness of -0.145 ± 0.15. V24Y showed an abundance fitness of -0.975 ± 0.4. Work on L68C yielded an abundance fitness of -0.585 ± 0.22. Variant L68S has an abundance fitness of -0.559 ± 0.16. With L68G the abundance fitness was -0.777 ± 0.32. In the case of L68A, the abundance fitness is reported as -0.483 ± 0.12. With L68N the abundance fitness was -0.232 ± 0.23. In the case of L68V, the abundance fitness is reported as -0.384 ± 0.19. M57T gave an abundance fitness of -0.701 ± 0.13. In the case of M57K, the abundance fitness is reported as -0.892 ± 0.34. Work on M57W yielded an abundance fitness of -0.374 ± 0.075. For M57V, the abundance fitness was -0.54 ± 0.11. In the case of M57G, the abundance fitness is reported as -0.41 ± 0.075. M57C showed an abundance fitness of -0.251 ± 0.11. In the case of M57F, the abundance fitness is reported as -0.428 ± 0.26. A5F showed an abundance fitness of 0.033 ± 0.1. For A5I, the abundance fitness was -0.008 ± 0.35. Work on A5R yielded an abundance fitness of -0.001 ± 0.068. With A5V the abundance fitness was 0.004 ± 0.11. Variant A5N has an abundance fitness of 0.093 ± 0.18. Work on A5P yielded an abundance fitness of -0.277 ± 0.14. In the case of G37S, the abundance fitness is reported as 0.028 ± 0.055. G37H showed an abundance fitness of 0.083 ± 0.16. G37C showed an abundance fitness of -0.118 ± 0.092. Variant G37A has an abundance fitness of -0.098 ± 0.066. G37T showed an abundance fitness of -0.162 ± 0.08. Work on G37W yielded an abundance fitness of -0.68 ± 0.14. In the case of G37M, the abundance fitness is reported as -0.163 ± 0.085. F10R showed an abundance fitness of -0.814 ± 0.099. Variant F10G has an abundance fitness of -0.955 ± 0.17. In the case of F10Q, the abundance fitness is reported as -0.825 ± 0.23. F10C gave an abundance fitness of -0.817 ± 0.33. With D2S the abundance fitness was -0.124 ± 0.053. In the case of D2G, the abundance fitness is reported as -0.21 ± 0.054. In the case of D2R, the abundance fitness is reported as -0.379 ± 0.06. Work on D2C yielded an abundance fitness of -0.511 ± 0.32. For D2E, the abundance fitness was -0.102 ± 0.13. With K11Y the abundance fitness was -0.781 ± 0.32. Variant K11F has an abundance fitness of -0.761 ± 0.19. For K11L, the abundance fitness was -0.661 ± 0.094. Variant K11T has an abundance fitness of -0.194 ± 0.1. For K11S, the abundance fitness was -0.443 ± 0.08. L28R gave an abundance fitness of -0.643 ± 0.045. Work on L28S yielded an abundance fitness of -0.636 ± 0.064. Variant S38I has an abundance fitness of -0.146 ± 0.14. With S38N the abundance fitness was 0.133 ± 0.11. S38C showed an abundance fitness of -0.092 ± 0.077. S38G showed an abundance fitness of -0.091 ± 0.049. With S38R the abundance fitness was -0.022 ± 0.045. Work on S38E yielded an abundance fitness of -0.127 ± 0.13. With S38Y the abundance fitness was 0.026 ± 0.032. In the case of S38H, the abundance fitness is reported as 0.104 ± 0.12. H54G gave an abundance fitness of -0.314 ± 0.064. For H54M, the abundance fitness was 0.005 ± 0.18. Work on H54E yielded an abundance fitness of -0.3 ± 0.34. Variant R13F has an abundance fitness of -0.375 ± 0.13. Work on R13Y yielded an abundance fitness of -0.761 ± 0.31. R13W showed an abundance fitness of -0.338 ± 0.099. R13V showed an abundance fitness of 0.067 ± 0.057. Variant A29S has an abundance fitness of 0.019 ± 0.052. For A29N, the abundance fitness was -0.116 ± 0.22. A29Y showed an abundance fitness of -0.165 ± 0.14. A29G gave an abundance fitness of -0.009 ± 0.082. Work on A29V yielded an abundance fitness of -0.237 ± 0.092. A29I gave an abundance fitness of -0.323 ± 0.18. For T20D, the abundance fitness was -0.254 ± 0.11. Variant T20P has an abundance fitness of -0.473 ± 0.074. T20C showed an abundance fitness of -0.338 ± 0.1. With T20E the abundance fitness was -0.325 ± 0.12. With T20V the abundance fitness was -0.964 ± 0.22. T20R gave an abundance fitness of -0.464 ± 0.054. T20G showed an abundance fitness of -0.419 ± 0.071. Work on T20M yielded an abundance fitness of -0.344 ± 0.14. With T20A the abundance fitness was -0.195 ± 0.053. V19M gave an abundance fitness of 0.055 ± 0.081. Work on V19A yielded an abundance fitness of 0.018 ± 0.063. With V19T the abundance fitness was -0.307 ± 0.067. V19N showed an abundance fitness of -0.093 ± 0.2. With V19D the abundance fitness was -0.614 ± 0.12. With V19G the abundance fitness was -0.927 ± 0.18. I33L gave an abundance fitness of -0.081 ± 0.066. Work on I33E yielded an abundance fitness of -0.205 ± 0.18. Variant I33D has an abundance fitness of -0.225 ± 0.099. S40G showed an abundance fitness of 0.014 ± 0.067. Work on S40M yielded an abundance fitness of -0.723 ± 0.42.
